Source: US20170119790A1, “Agents, Uses and Methods” (CYTOGUIDE A/S, priority 2009, published 2017)

Key:
[1] = system: non-transfected Flp-In CHO cells; assay: Cellular binding and uptake of 125I-labeled anti-CD163, control cells; assay type: cell-based, Chinese hamster; conditions: 125I-labelled mAb
From the text: Endocytosis of ^125I-labeled anti-CD163 was investigated in CD163 transfected Flp-In Chinese hamster ovary (CHO) cells and mock-transfected Flp-In as described (Madsen, M., Moller, H. J., Nielsen, M. J., Jacobsen, C., Graversen, J. H., van den Berg, T. and Moestrup, S. K. (2004) Molecular characterization of the haptoglobin.hemoglobin receptor CD163. Ligand binding properties of the scavenger receptor cysteine-rich domain region. J. Biol. Chem., 279, 51561-51567.)

[2] = biological target: T1, CHO cells expressing CD163 (Homo sapiens, UniProt Q86VB7); assay: CD163 antibody binding and uptake in CHO cells expressing CD163 (confocal microscopy); assay type: cell-based; conditions: 0 or 30 minutes, FIG. 7
T1 construct: Stably transfected Chinese hamster ovary (CHO) cells expressing the full-length human CD163; expressed in transfected cells
Experimental: Monocytes were isolated from PBMC by negative selection using magnetic beads from Dynal (Dynabeads® MyPure™ Monocyte Kit 2; Invitrogen A/S, Taastrup, Denmark) according to instructions provided by the manufacturer. Monocyte preparations were more than 95% (CD14^+) pure determined by flow cytometry. The isolated cells were washed twice with phosphate-buffered saline. Monocyte-derived macrophages (MDMs) were prepared by cell culture of monocytes (approximately 1×10^7 cells) for 4 days in 5% CO2 and 37° C. in RPMI 1640 media (RPMI 1640+25 mM HEPES+I-glutamine) (Invitrogen Corporation, Carlsbad, Calif., USA) with 20% FCS containing 100 ng/ml of M-CSF. MDMs were then detached from the flask by incubation with cell dissociation buffer (Invitrogen A/S, Taastrup, Denmark) for 30 minutes at 4 °C, then flushed, and scraped. […]
MDMs or CHO cells were washed with 4° C. cold D-PBS, pH 7.4, containing 1% BSA in Lab-Tek™ Chamber Slides (Thermo Fisher Scientific, Roskilde, Denmark). […] Fluorescence was visualized using a Zeiss Axiovert 200M microscope (Carl Zeiss GmbH, Jena, Germany) with an ×100 oil-immersion objective. […] Alternatively, immunostained cells were analyzed by confocal immunofluorescence microscopy using a Zeiss LSM-510 confocal microscope (Carl Zeiss GmbH, Jena, Germany). […]

[3] = biological target: T2, human CD163 wt (Homo sapiens, UniProt Q86VB7); assay: Western blotting of human CD163 and knock out mutants; assay type: binding
T2 construct: a pcDNA5-FRT-humanCD163 plasmid harboring the full length human CD163 cDNA; expressed in transfected cells; host or cells: HEK 293, transient
Experimental: Each cell pellet was added 1 ml lysis buffer (10 mM Tris pH 8, 140 mM NaCl, 15 mM MgSO4, 1% Triton X-100) and incubated for 15 min at 4 °C with rotation. After centrifugation for 30 min at 6000 rpm the supernatants were sterile filtered.
90 μl of each of the supernatants were added 30 μl of 4×LDS sample buffer. 3×20 μl samples of each supernatant and 8 μl SeeBlue plus2 prestained marker were loaded on NuPage 4-12% Bis-Tris-Gels (Invitrogen, Taastrup, Denmark) and the SDS-PAGEs were run with MOPS running buffer according to instructions of the manufacturer (200 V constant for 50 min). Blotting to PVDF membranes (Invitrogen, Taastrup, Denmark) was done on an iBLOT device according to instructions of the manufacturer. After blotting the membranes were washed briefly in 1×PBS 0.1% Tween and blocked for 30 min in 1×PBS 2% Tween at room temperature with shaking. After blocking the membranes were washed 3×5 min in 1×PBS 0.1% Tween and incubated 1 hour with: (1) 10 ml 1 μg/ml polyclonal rabbit anti-human CD163; (2) 10 ml 1 μg/ml Mac2-158; (3) 10 ml 1:500 KN2/NRY-HRP all diluted in 1×PBS 0.1% Tween. The membranes were washed with 3×5 min 1×PBS 0.1% Tween again and incubated with: (1) 10 ml Goat anti-rabbit-HRP 1:1000 (AbD Serotec, Oxford, UK); or (2) 10 ml Goat anti-mouse-HRP 1:1000 (Dako, Glostrup, Denmark) for 1 hour. […]

T2 sequence (Q86VB7 42-1156): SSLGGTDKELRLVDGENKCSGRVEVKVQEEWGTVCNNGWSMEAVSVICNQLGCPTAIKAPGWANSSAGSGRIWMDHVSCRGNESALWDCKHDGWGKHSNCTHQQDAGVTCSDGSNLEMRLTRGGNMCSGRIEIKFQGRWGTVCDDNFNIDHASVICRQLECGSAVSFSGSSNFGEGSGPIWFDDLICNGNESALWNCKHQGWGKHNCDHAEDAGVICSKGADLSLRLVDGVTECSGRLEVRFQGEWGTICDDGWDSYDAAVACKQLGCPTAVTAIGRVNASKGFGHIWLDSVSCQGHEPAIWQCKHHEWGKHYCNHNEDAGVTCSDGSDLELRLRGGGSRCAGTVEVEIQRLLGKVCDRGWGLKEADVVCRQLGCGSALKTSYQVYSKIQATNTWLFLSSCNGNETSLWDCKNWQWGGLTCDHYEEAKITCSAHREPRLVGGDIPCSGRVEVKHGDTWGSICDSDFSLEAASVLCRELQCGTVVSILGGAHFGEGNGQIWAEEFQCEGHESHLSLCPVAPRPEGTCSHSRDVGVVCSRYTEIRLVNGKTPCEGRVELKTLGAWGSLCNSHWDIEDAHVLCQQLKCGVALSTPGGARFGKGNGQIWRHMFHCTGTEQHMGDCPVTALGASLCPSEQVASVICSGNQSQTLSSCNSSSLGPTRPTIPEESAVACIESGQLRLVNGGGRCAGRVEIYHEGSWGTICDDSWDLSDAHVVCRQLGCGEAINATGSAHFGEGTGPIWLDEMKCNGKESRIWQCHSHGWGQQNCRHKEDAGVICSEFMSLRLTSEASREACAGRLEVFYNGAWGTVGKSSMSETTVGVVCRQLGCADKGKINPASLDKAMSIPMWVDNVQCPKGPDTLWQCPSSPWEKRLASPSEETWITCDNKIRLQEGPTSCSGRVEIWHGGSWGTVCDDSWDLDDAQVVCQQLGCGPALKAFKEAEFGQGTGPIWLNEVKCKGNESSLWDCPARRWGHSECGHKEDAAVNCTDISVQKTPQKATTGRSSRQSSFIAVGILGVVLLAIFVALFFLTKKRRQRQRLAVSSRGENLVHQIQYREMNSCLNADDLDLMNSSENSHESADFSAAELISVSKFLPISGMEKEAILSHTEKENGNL
T1 sequence (Q86VB7 42-1156): as above

B1: MAC2-158: anti-human CD163 murine mAb, binds SRCR domain 1, IQ Products; VH SEQ ID NO: 1, VL SEQ ID NO: 2 (antibody, V domains shown)
VH: DVQLQESGPGLVKPSQSLSLTCTVTGYSITSDYAWNWIRQFPGNKLEWMGYITYSGITNYNPSLKSQISITRDTSKNQFFLQLNSVTTEDTATYYCVSGTYYFDYWGQGTTLTVSS
VL: SVVMTQTPKSLLISIGDRVTITCKASQSVSSDVAWFQQKPGQSPKPLIYYASNRYTGVPDRFTGSGYGTDFTFTISSVQAEDLAVYFCGQDYTSPRTFGGGTKLEIKRA
modifications: Mac2-158 VH; Mac2-158 VL
With B1 the “percentage of cell-associated radioactivity reached” value [1] was 1.37%, the binding and uptake [2] was “best binding and uptake” and the “binding in western blot” value [3] was “bound”.
